Holding throughout (assay): purified protein
Holding throughout (format): biochemical, Sterolibacterium denitrificans

Substrate in data set [1]: CC(C)CCC[C@@H](C)[C@H]1CC[C@H]2[C@@H]3CCC4=CC(=O)CC[C@]4(C)[C@H]3CC[C@]12C
To be noted: apparent, as total steroid concentration, DCPIP as acceptor, 2% HBC, 2% EGME, 0.1 M potassium phosphate pH 6.5, 30 °C.

Substrate in data set [2]: C[C@]12CCC(=O)C=C1CC[C@@H]1[C@@H]2CC[C@]2(C)C(=O)CC[C@@H]12
To be noted: pH 6.5; 30.0 °C.

Substrate in data set [3]: O=C1C(Cl)=CC(=Nc2ccc(O)cc2)C=C1Cl
To be noted: apparent, electron acceptor, co-substrate cholest-4-en-3-one, 2% HBC, 2% EGME, 0.1 M potassium phosphate pH 6.5, 30 °C.

B1: AcmB (Sterolibacterium denitrificans) (protein)
chain: MSIETNTYDVIVVGSGAGAMLAAARAHDLGLSVLVVEKSDKYGGTSAVSGGAVWIPNNSQMQIKDSFDEALTYLKAATQGLVAEDRLLAYLESAPQMVEYINANMTLQYFPCHRYPDYYQHLPGAKPGGRTMEPMLFDAALLGDEFANLRMAYTGTLLMGKASMTATEAHVMLAKEPGWMLQVIKSLGRYYLDLPWRLKSRHDRKRGLGNAMAAGLRHALLERKVPLWLNTPFESLITEGAENKRVTGIVVKRNGQTLQLTARRGVVLGAGGFERNQQMREQYLPKPTNAAWSATPPHNTGDTIRAAMDIGARAELMDWAWWVPSIHVPGEAAQTGLFAERNLPGCIVVNGKGQRFINEASPYLEFGAAMYENHARSGSAVPAWLIFDGKFRYNYPMGPLMPGQIQPDRKAWLGKVYWRDDTLEGLAKQIGVDAAGLKQSVELNNQYAQDGKDREFDKGGNVFDRYYGDYNVKPNPCLAPIGKPPYYAMRVDAGDIGTKGGLLTDKDARVLDESDRPIEGLYCIGNNSASVMGKAYPGAGGTLGPAMTFGFRAANHIAASK
notes: recombinant, purified; cloned, expressed and purified as in the authors' earlier work; FAD enzyme
For B1, the Km in data set [1] was found to be 23.7 ± 1.16 µM; in data set [2] it was 529.2 ± 32.5 µM; in data set [3], 37.3 ± 3.3 µM. In addition, the turnover number (kcat) in data set [1] and in data set [3] was 5.8 ± 0.2 s⁻¹ throughout. Moreover, the specificity constant (kcat/Km) in data set [1] was 245000 ± 1000 M⁻¹ s⁻¹; in data set [2] it was 87000 ± 5000 M⁻¹ s⁻¹.

Broadly, the Km is the concentration of substrate that gives half-maximal velocity. The kcat is the number of substrate molecules converted per active site and unit of time at saturation. The kcat/Km is the second-order rate constant that governs catalysis at low substrate concentration.

The record behind these values is publication PMC8220720, “Universal capability of 3-ketosteroid Δ^1-dehydrogenases to catalyze Δ^1-dehydrogenation of C17-substituted steroids” (Microbial Cell Factories, 2021).
